For this assay, the target named is T1, purified STIL[N] (aa1-1018) (human, UniProt Q15468 1-1018).
T1 sequence (looked up): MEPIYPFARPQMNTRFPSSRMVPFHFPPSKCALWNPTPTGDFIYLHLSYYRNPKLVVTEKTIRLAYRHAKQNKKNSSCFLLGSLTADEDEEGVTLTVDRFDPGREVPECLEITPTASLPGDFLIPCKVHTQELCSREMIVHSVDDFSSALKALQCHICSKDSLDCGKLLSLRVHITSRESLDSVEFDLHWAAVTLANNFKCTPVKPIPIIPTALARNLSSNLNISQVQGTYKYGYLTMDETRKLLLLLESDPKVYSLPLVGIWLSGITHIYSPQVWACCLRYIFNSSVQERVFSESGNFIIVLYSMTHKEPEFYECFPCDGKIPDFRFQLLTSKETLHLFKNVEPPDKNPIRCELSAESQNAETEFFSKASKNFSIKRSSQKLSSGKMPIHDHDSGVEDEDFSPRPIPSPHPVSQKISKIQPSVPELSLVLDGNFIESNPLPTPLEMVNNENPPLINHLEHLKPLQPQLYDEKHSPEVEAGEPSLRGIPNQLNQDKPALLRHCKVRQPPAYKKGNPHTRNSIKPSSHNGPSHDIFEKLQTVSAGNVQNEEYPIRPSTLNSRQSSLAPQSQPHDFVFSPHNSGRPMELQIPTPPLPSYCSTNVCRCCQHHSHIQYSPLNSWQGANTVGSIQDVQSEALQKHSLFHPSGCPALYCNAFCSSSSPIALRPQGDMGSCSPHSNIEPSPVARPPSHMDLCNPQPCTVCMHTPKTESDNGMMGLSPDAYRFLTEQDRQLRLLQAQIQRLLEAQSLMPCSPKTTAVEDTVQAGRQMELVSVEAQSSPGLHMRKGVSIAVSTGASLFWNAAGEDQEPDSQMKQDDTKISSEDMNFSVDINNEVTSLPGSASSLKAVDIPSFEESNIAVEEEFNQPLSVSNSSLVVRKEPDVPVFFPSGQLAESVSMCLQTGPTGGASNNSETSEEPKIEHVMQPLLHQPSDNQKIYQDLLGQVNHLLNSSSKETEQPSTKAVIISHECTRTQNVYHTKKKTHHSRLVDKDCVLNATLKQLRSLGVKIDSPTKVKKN
Kind of assay: pull-down; GST-RBM14 fragments retained on Glutathione sepharose beads, incubated with ~5 μg bacterially purified STIL[N] for 2 h at 4°C in lysis buffer; SDS-PAGE, SimplyBlue Safe stain. Particulars: both partners purified.

B1: GST-RBM14[C] (domain or fragment, human, UniProt Q96PK6 151-669, looked up)
chain: QKKGPGLAVQSGDKTKKPGAGDTAFPGTGGFSATFDYQQAFGNSTGGFDGQARQPTPPFFGRDRSPLRRSPPRASYVAPLTAQPATYRAQPSVSLGAAYRAQPSASLGVGYRTQPMTAQAASYRAQPSVSLGAPYRGQLASPSSQSAAASSLGPYGGAQPSASALSSYGGQAAAASSLNSYGAQGSSLASYGNQPSSYGAQAASSYGVRAAASSYNTQGAASSLGSYGAQAASYGAQSAASSLAYGAQAASYNAQPSASYNAQSAPYAAQQAASYSSQPAAYVAQPATAAAYASQPAAYAAQATTPMAGSYGAQPVVQTQLNSYGAQASMGLSGSYGAQSAAAATGSYGAAAAYGAQPSATLAAPYRTQSSASLAASYAAQQHPQAAASYRGQPGNAYDGAGQPSAAYLSMSQGAVANANSTPPPYERTRLSPPRASYDDPYKKAVAMSKRYGSDRRLAELSDYRRLSESQLSFRRSPTKSSLDYRRLPDAHSDYARYSGSYNDYLRAAQMHSGYQRRM
For the molecule B1, the binding result is recorded as “binds”.

For the origin of these results see publication PMC4291483 (The EMBO Journal, 2014).
